This data set concerns the molecule itself. Briefly: SEC. (In general: Size exclusion chromatography separates by hydrodynamic size, large species first.)

B1: PMK3 (p38 MAPK of C. elegans), full length (enzyme, UniProt O44514 1-474, looked up)
chain: MASVPSSSSLPVSHVRRHEDVSTPSAPPTKRSNNQSQPPESYEPNTWLQQQREQEQQKKLAAENIKKQSIEATGNNEMVGEEEEDILSKPCGPHKRRFQFVMIRNITFAIPEGYDVEPNSIEYLGGGSFGNVIKTSAVCRDGLRRYVAIKKMREPFFDPHHARRIFRETKLLQLMRHDNIICALDIYTPDEENDFRDVYVVTEFAGRSLYQILKQQRDYGRRVLTDEHIKFIIYQIIRALKYIHSANIIHRDLKPGNLALTDDSDLMILDFGLARSLEKKDTSLTQYVQTRWYRSPEVIYWKIDSYTNLADMWSLGCIAAELLTGEPLFPGDEPNAQYQRITQLCGSPDEELLTKIENDNSSAIKAVIQSYTTHKRRNFRDVFSAHNPSEDFIDLLEKLLVLDPEKRITVEEAIQHPYLAEFSLPEDEPRADHIFDLDDSQARTRFEWRDAVWKEIMNYKRLSSSPLIPGEADR
Consider B1, for which the binding result is on record as “binds”.

The record behind these values is article doi:10.1101/2024.08.01.606155 (bioRxiv, 2024).
